Read-outs that look alike come from different tables or passages of the source.
Columns and labels:
SARS-COV-2 RBD-MMH [1] = target: SARS-COV-2 RBD-MMH (SARS-CoV-2); assay: SPR 37C, run with dissociation at pH 5.0
SARS-COV-2 RBD-MMH [2] = target: SARS-COV-2 RBD-MMH (SARS-CoV-2); assay: SPR 37C, run with dissociation at pH 7.4
[3] = target: T1, human FcγR3a 176Val allotype receptor (human, UniProt P08637 17-254); assay: cell-based or functional assay
SARS-COV-2 RBD-MMH [4] = target: SARS-COV-2 RBD-MMH (SARS-CoV-2); assay: SPR 37C
[5] = target: T1, human FcγR3a 176Val allotype receptor; assay: cell-based or functional assay; remark: listed apart in the source

Binder	RBD.mmh Bound at pH 7.4 (RU) (SARS-COV-2 RBD-MMH [1])	koff (SARS-COV-2 RBD-MMH [1]) [s⁻¹]	t½ (SARS-COV-2 RBD-MMH [1]) [min]	RBD.mmh Bound at pH 7.4 (RU) (SARS-COV-2 RBD-MMH [2])	koff (SARS-COV-2 RBD-MMH [2]) [s⁻¹]	EC50 (M), Jurkat/CD20/spike [3] [M]	Fold induction, Jurkat CD20 [3] [fold]	Fold induction, Jurkat/CD20/spike [3] [fold]	t½ Ratio of pH 7.4 to pH 5.0 (SARS-COV-2 RBD-MMH [4])	EC50 (M), Jurkat/CD20/spike [5] [M]	Fold induction, Jurkat CD20 [5] [fold]	Fold induction, Jurkat/CD20/spike [5] [fold]	EC50 (M), Jurkat CD20 [3] [M]
mAb14286 (antibody) heavy: not shown light: QSALTQPASVSGYPGQSITISCTGTSSDVGGYNYVSWYQQHPGKAPKLMIFDVSNRPSGVSNRFSGSKSGNTASLTFSGLQAEDEADYYCSSYTSSSTLVFGGGTKLTVLGQPKAAPSVTLFPPSSEELQANKATLVCLISDFYPGAVTVAWKADSSPVKAGVETTTPSKQSNNKYAASSYLSLTPEQWKSHRSYSCQVTHEGSTVEKTVAPTECS	82.4	0.00664	1.7	84.3	0.00968	2.04e-10	1	11	0.7				
mAb14315 (antibody) heavy: not shown light: EIVLTQSPGTLSLSPGERATLSCRASQSVSSNYLAWYQQKPGQAPRLLIYGASSRATGIPERFSGSGSGTDFTLTISRLEPEDFAVYYCQQYGSSLYTFGQGTKLEIKRTVAAPSVFIFPPSDEQLKSGTASVVCLLNNFYPREAKVQWKVDNALQSGNSQESVTEQDSKDSTYSLSSTLTLSKADYEKHKVYACEVTHQGLSSPVTKSFNRGEC	101	0.0007	16.5	83.3	0.00098	6.24e-11	1.1	9.3	0.7				
mAb14289 (antibody) heavy: not shown light: EIVLTQSPGTLSLSPGERATLSCRASQSVSSYLAWYQQKPGQAPRLLIHGASSRATGIPDRFSGSGSGTDFTLTISRLEPEDFAVYYCQQYGSSFLTFGGGTKVEIKRTVAAPSVFIFPPSDEQLKSGTASVVCLLNNFYPREAKVQWKVDNALQSGNSQESVTEQDSKDSTYSLSSTLTLSKADYEKHKVYACEVTHQGLSSPVTKSFNRGEC	89.3	0.0046	2.5	86.1	0.00185	1.3e-10	1	6.3	2.5				
mAb14256 (antibody) heavy: not shown light: QSVLTQPPSVSGAPGQRVTISCTGSSSNIGTHYDVHWYQQLPGTAPKLLIYGNSNRPSGVPDRFSGSKSGTSASLAITGLQAEDEADYYCQSFDNSLTAPYVFGTGTKVTVLGQPKAAPSVTLFPPSSEELQANKATLVCLISDFYPGAVTVAWKADSSPVKAGVETTTPSKQSNNKYAASSYLSLTPEQWKSHRSYSCQVTHEGSTVEKTVAPTECS	54.1	0.00927	1.2	80.2	0.0111	4.48e-10	1	6.1	0.8	5.75e-10	1.1	2	
mAb14257 (antibody) heavy: not shown light: QSVLTQPPSVSGAPGQRVTISCTGTSSNIGADFDVHWYQQFPGTAPKLLIYGHTNRPSGIPDRFSGSKSGTSASLAITGLQAEDEADYYCQSYDSSLSGSVVFGGGTKLTVLGQPKAAPSVTLFPPSSEELQANKATLVCLISDFYPGAVTVAWKADSSPVKAGVETTTPSKQSNNKYAASSYLSLTPEQWKSHRSYSCQVTHEGSTVEKTVAPTECS	45.2	0.0172	0.7	82.3	0.00778	2.39e-10	1	8.8	2.1	2.63e-10	1.2	2.2	
mAb14312 (antibody) heavy: not shown light: QSVLTQPPSVSGAPGQRVTISCTGSSSNIGAGDDVHWYQQLPGTAPKLLIYGNSNRPSGVPDRFSGSKSGTSASLAITGLQAEDEADYYCQSYDSSLSGSVVFGGGTKLTVLGQPKAAPSVTLFPPSSEELQANKATLVCLISDFYPGAVTVAWKADSSPVKAGVETTTPSKQSNNKYAASSYLSLTPEQWKSHRSYSCQVTHEGSTVEKTVAPTECS	96.7	0.00558	2.1	95.2	0.000859	1.68e-10	2	7.5	6.4				1.84e-08
mAb14255 (antibody) heavy: not shown light: QSALTQPASVSGSPGQSITISCTGTSSDVGSYNLVSWYQQHPGKAPKLMIYEDSKRPSGVANPFSGSKSGNTASLTISGLQAEDEADYYCSSYAGSSTWVFGGGTKLTVLGQPKAAPSVTLFPPSSEELQANKATLVCLISDFYPGAVTVAWKADSSPVKAGVETTTPSKQSNNKYAASSYLSLTPEQWKSHRSYSCQVTHEGSTVEKTVAPTECS	94.1	0.00635	1.8	97.5	0.00493	1.67e-10	1	9.5	1.3	1.88e-10	1.1	3.2	
mAb14294 (antibody) heavy: not shown light: EIVLTQSPGTLSLSPGERATLSCRASQSVSSSQLAWYQQKPGQAPRLLIYGASSRATGIPDRFSGSGSGTDFTLTISRLEPEDFAVYYCQQYDSFGQGTKLEIKRTVAAPSVFIFPPSDEQLKSGTASVVCLLNNFYPREAKVQWKVDNALQSGNSQESVTEQDSKDSTYSLSSTLTLSKADYEKHKVYACEVTHQGLSSPVTKSFNRGEC	97.6	0.000452	25.5	83.2	0.00092	6.04e-11	1	10.5	0.5				
